Measured values reported in the supplement of paper PMC10065799, “High-throughput profiling of sequence recognition by tyrosine kinases and SH2 domains using bacterial peptide display” (eLife, 2023).

system: Fer (mouse); assay: phosphorylation enrichment, bacterial display (enrichment ratio); higher = better substrate or ligand; peptides without Tyr show the background
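Further: 11-residue human phosphosite peptides and single-mutation variants displayed on the E. coli surface, counted by deep sequencing, each peptide's frequency after selection divided by its frequency in the unselected input library; frequency after pTyr selection over input frequency; kinase dosed for 20-30% of maximal phosphorylation in three min.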

Row | Sequence | phosphorylation enrichment
1 | VIKDKYPKVRY [APTX_Y209_A212V] | 0.402
2 | CPPEVYAIMRG [NTRK1_Y757] | 0.51
3 | GLRQSYFVEAQ [APCS_Y142_G141S] | 0.378
4 | YPKARYHWLVL [APTX_Y214] | 0.539
5 | LVFIKYLPEWT [PSEN1_Y240] | 0.744
6 | PESIMYPKFTT [NTRK3_Y744_R745P] | 0.549
7 | DASENYFVTDS [TMEM240_Y77] | 0.517
8 | VVLEDYLDIKH [CLCNKB_Y138_N143H] | 0.506
9 | SLTGAYTSGIP [POM121C_Y378] | 0.306
10 | LKRCQYVTKKV [ALDOA_Y204_E207K] | 0.582
11 | LEQRPYRRESE [KCNJ12_Y427] | 0.367
12 | AGEGTYALDSE [PES1_Y265] | 0.5
13 | QITQVYGFFDE [PPP2CA_Y127_YF] | 1.39
14 | KRIKLYNQEND [RPGRIP1L_Y448] | 0.388
15 | LLPNAYIYVVQ [L1CAM_Y418_A415P] | 0.539
16 | DRVALYVAREG [AACS_Y117_I118V] | 0.498
17 | FDDIAYIRKTL [PIK3CA_Y1021] | 0.411
18 | NNVEQYQAMVT [TPR_Y965_S960N] | 0.528
19 | PSQRPYVFFFS [PTEN_Y174_R173P_YF] | 0.693
20 | CTAIHYNYMCN [TP53_Y234_T231A] | 0.401
21 | QLPATCMNLGP [MST1R_Y1360_Y1360C] | 0.621
22 | EVNQDYGLDPK [FH_Y110] | 0.519
23 | AIFRRYSKFFD [SH3PXD2B_Y45_YF] | 0.408
24 | WAKPEYTGGFK | 0.332
25 | EYITRYIASLK [PSMA7_Y110] | 0.414
26 | EKGSNYCLCRT [ASIC2_Y357_D354G] | 0.378
27 | RLLVVYPWPQR [HBG2_Y36_T39P] | 0.512
28 | AAESTYDKILK [GDNF_Y156_T154S] | 0.418
29 | RRGMPYGGRGD [TGM1_Y312] | 0.746

system: c-Src; assay: as above

Row | Sequence | phosphorylation enrichment
30 | VIKDKYPKVRY [APTX_Y209_A212V] | 0.487
31 | CPPEVYAIMRG [NTRK1_Y757] | 2.39
32 | GLRQSYFVEAQ [APCS_Y142_G141S] | 0.453
33 | YPKARYHWLVL [APTX_Y214] | 0.383
34 | LVFIKYLPEWT [PSEN1_Y240] | 0.4
35 | PESIMYPKFTT [NTRK3_Y744_R745P] | 0.397
36 | DASENYFVTDS [TMEM240_Y77] | 0.492
37 | VVLEDYLDIKH [CLCNKB_Y138_N143H] | 0.458
38 | SLTGAYTSGIP [POM121C_Y378] | 0.326
39 | LKRCQYVTKKV [ALDOA_Y204_E207K] | 0.545
40 | LEQRPYRRESE [KCNJ12_Y427] | 0.385
41 | AGEGTYALDSE [PES1_Y265] | 0.935
42 | QITQVYGFFDE [PPP2CA_Y127_YF] | 8.8
43 | KRIKLYNQEND [RPGRIP1L_Y448] | 0.353
44 | LLPNAYIYVVQ [L1CAM_Y418_A415P] | 1
45 | DRVALYVAREG [AACS_Y117_I118V] | 0.367
46 | FDDIAYIRKTL [PIK3CA_Y1021] | 0.449
47 | NNVEQYQAMVT [TPR_Y965_S960N] | 0.485
48 | PSQRPYVFFFS [PTEN_Y174_R173P_YF] | 0.973
49 | CTAIHYNYMCN [TP53_Y234_T231A] | 0.441
50 | QLPATCMNLGP [MST1R_Y1360_Y1360C] | 0.632
51 | EVNQDYGLDPK [FH_Y110] | 0.466
52 | AIFRRYSKFFD [SH3PXD2B_Y45_YF] | 0.626
53 | WAKPEYTGGFK | 0.417
54 | EYITRYIASLK [PSMA7_Y110] | 0.477
55 | EKGSNYCLCRT [ASIC2_Y357_D354G] | 0.393
56 | RLLVVYPWPQR [HBG2_Y36_T39P] | 0.456
57 | AAESTYDKILK [GDNF_Y156_T154S] | 0.719
58 | RRGMPYGGRGD [TGM1_Y312] | 0.68

biological target: Fes (UniProt P07332); assay: as above
Sequence (P07332 whole entry, looked up): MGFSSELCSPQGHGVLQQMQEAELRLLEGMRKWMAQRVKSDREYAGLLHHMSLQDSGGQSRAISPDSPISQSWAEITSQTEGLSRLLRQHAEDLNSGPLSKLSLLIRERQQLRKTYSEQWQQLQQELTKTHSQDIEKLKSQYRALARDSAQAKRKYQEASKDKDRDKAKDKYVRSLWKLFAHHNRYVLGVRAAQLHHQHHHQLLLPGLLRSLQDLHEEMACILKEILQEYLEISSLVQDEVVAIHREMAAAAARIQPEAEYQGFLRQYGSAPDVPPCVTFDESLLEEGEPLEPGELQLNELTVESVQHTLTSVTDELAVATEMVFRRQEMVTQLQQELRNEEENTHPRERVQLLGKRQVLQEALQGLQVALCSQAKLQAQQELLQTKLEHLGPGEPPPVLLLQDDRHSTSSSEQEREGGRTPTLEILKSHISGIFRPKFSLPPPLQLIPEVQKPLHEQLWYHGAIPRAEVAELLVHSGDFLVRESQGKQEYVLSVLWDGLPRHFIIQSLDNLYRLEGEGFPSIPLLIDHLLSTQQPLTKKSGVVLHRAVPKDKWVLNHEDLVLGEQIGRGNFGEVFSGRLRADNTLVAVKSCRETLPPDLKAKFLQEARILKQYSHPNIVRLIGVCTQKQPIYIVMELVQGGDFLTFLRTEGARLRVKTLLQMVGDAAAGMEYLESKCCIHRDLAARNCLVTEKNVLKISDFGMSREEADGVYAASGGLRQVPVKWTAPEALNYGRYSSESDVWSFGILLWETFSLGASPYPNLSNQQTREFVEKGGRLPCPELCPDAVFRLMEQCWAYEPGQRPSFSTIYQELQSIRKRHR

Row | Sequence | phosphorylation enrichment
59 | VIKDKYPKVRY [APTX_Y209_A212V] | 0.667
60 | CPPEVYAIMRG [NTRK1_Y757] | 1.12
61 | GLRQSYFVEAQ [APCS_Y142_G141S] | 0.825
62 | YPKARYHWLVL [APTX_Y214] | 1.08
63 | LVFIKYLPEWT [PSEN1_Y240] | 1.92
64 | PESIMYPKFTT [NTRK3_Y744_R745P] | 1.09
65 | DASENYFVTDS [TMEM240_Y77] | 1.23
66 | VVLEDYLDIKH [CLCNKB_Y138_N143H] | 1.3
67 | SLTGAYTSGIP [POM121C_Y378] | 0.533
68 | LKRCQYVTKKV [ALDOA_Y204_E207K] | 0.821
69 | LEQRPYRRESE [KCNJ12_Y427] | 1.01
70 | AGEGTYALDSE [PES1_Y265] | 1.04
71 | QITQVYGFFDE [PPP2CA_Y127_YF] | 1.81
72 | KRIKLYNQEND [RPGRIP1L_Y448] | 0.681
73 | LLPNAYIYVVQ [L1CAM_Y418_A415P] | 2.47
74 | DRVALYVAREG [AACS_Y117_I118V] | 1.01
75 | FDDIAYIRKTL [PIK3CA_Y1021] | 0.878
76 | NNVEQYQAMVT [TPR_Y965_S960N] | 1.14
77 | PSQRPYVFFFS [PTEN_Y174_R173P_YF] | 1.51
78 | CTAIHYNYMCN [TP53_Y234_T231A] | 0.727
79 | QLPATCMNLGP [MST1R_Y1360_Y1360C] | 1.2
80 | EVNQDYGLDPK [FH_Y110] | 1.29
81 | AIFRRYSKFFD [SH3PXD2B_Y45_YF] | 1.13
82 | WAKPEYTGGFK | 0.732
83 | EYITRYIASLK [PSMA7_Y110] | 0.717
84 | EKGSNYCLCRT [ASIC2_Y357_D354G] | 0.607
85 | RLLVVYPWPQR [HBG2_Y36_T39P] | 1.7
86 | AAESTYDKILK [GDNF_Y156_T154S] | 0.886
87 | RRGMPYGGRGD [TGM1_Y312] | 0.618

system: AncSZ; assay: as above

Row | Sequence | phosphorylation enrichment
88 | VIKDKYPKVRY [APTX_Y209_A212V] | 0.448
89 | CPPEVYAIMRG [NTRK1_Y757] | 1.24
90 | GLRQSYFVEAQ [APCS_Y142_G141S] | 0.717
91 | YPKARYHWLVL [APTX_Y214] | 0.95
92 | LVFIKYLPEWT [PSEN1_Y240] | 1.78
93 | PESIMYPKFTT [NTRK3_Y744_R745P] | 0.66
94 | DASENYFVTDS [TMEM240_Y77] | 1.41
95 | VVLEDYLDIKH [CLCNKB_Y138_N143H] | 1.25
96 | SLTGAYTSGIP [POM121C_Y378] | 0.443
97 | LKRCQYVTKKV [ALDOA_Y204_E207K] | 1
98 | LEQRPYRRESE [KCNJ12_Y427] | 0.746
99 | AGEGTYALDSE [PES1_Y265] | 0.972
100 | QITQVYGFFDE [PPP2CA_Y127_YF] | 1.81
101 | KRIKLYNQEND [RPGRIP1L_Y448] | 0.643
102 | LLPNAYIYVVQ [L1CAM_Y418_A415P] | 2.28
103 | DRVALYVAREG [AACS_Y117_I118V] | 0.8
104 | FDDIAYIRKTL [PIK3CA_Y1021] | 0.75
105 | NNVEQYQAMVT [TPR_Y965_S960N] | 1.08
106 | PSQRPYVFFFS [PTEN_Y174_R173P_YF] | 1.27
107 | CTAIHYNYMCN [TP53_Y234_T231A] | 0.707
108 | QLPATCMNLGP [MST1R_Y1360_Y1360C] | 1.29
109 | EVNQDYGLDPK [FH_Y110] | 1.31
110 | AIFRRYSKFFD [SH3PXD2B_Y45_YF] | 1.03
111 | WAKPEYTGGFK | 0.544
112 | EYITRYIASLK [PSMA7_Y110] | 0.708
113 | EKGSNYCLCRT [ASIC2_Y357_D354G] | 0.732
114 | RLLVVYPWPQR [HBG2_Y36_T39P] | 0.97
115 | AAESTYDKILK [GDNF_Y156_T154S] | 0.681
116 | RRGMPYGGRGD [TGM1_Y312] | 0.878
